According to PMC9482650, “Quantitative fragmentomics allow affinity mapping of interactomes” (Nature Communications, 2022):

Columns and labels:
Assay in all cases: holdup assay
Design in all cases: key: below the threshold = too weak to quantify, mostly under pKd 3.1 to 4
Details in all cases: plain residues with an end cap or a label only (N-terminal biotin on a linker: ttds)
[1] = target: T1, ARHGAP21, Q5T5U3
T1 sequence (Q5T5U3 45-169, limits assumed, looked up): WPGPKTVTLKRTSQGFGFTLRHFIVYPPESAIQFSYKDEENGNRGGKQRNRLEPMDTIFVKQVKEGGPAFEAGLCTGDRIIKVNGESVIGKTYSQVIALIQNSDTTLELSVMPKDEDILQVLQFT

[2] = target: DLG5_2, Q8TDM6
Sequence of DLG5_2, Q8TDM6 (Q8TDM6 714-800): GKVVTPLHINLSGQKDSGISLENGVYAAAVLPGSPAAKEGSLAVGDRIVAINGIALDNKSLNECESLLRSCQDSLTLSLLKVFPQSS

[3] = target: T2, DVL1, O14640
T2 sequence (O14640 246-333, limits assumed, looked up): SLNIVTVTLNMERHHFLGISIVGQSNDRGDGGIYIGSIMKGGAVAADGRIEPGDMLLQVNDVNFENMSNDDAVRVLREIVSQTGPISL

[4] = target: GOPC, Q9HD26
[5] = target: T3, GRIP1_1, Q9Y3R0
T3 sequence (Q9Y3R0 48-146, limits assumed, looked up): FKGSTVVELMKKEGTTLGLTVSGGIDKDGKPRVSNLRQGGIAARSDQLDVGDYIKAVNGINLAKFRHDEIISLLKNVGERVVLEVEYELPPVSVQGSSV

[6] = target: IL16_2, Q14005
Sequence of IL16_2, Q14005 (Q14005 350-450): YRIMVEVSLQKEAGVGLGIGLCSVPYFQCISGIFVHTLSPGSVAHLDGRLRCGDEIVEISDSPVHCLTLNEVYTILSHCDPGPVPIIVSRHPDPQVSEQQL

[7] = target: MAGI1_4, Q96QZ7
Sequence of MAGI1_4, Q96QZ7 (Q96QZ7 other isoform, or with tags, fused parts or gaps): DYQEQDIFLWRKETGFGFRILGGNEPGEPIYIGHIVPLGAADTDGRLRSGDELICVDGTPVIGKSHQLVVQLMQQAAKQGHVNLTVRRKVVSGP

[8] = target: MAGI3_5, Q5TCQ9
Sequence of MAGI3_5, Q5TCQ9 (Q5TCQ9 847-941): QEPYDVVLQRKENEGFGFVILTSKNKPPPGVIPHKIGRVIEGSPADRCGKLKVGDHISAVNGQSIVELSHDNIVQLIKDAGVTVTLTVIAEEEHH

[9] = target: MAGIX, Q9H6Y5
Sequence of MAGIX, Q9H6Y5 (Q9H6Y5 118-211): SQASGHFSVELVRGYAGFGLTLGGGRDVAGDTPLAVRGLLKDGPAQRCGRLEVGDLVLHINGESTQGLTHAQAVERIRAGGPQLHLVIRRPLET

[10] = target: T4, MLLT4, P55196
T4 sequence (P55196 1002-1103, limits assumed, looked up): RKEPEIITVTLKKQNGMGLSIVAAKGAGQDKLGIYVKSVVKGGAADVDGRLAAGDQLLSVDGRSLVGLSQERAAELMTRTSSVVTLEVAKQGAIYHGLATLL

[11] = target: T5, MPDZ_13, O75970
T5 sequence (O75970 1982-2070, limits assumed, looked up): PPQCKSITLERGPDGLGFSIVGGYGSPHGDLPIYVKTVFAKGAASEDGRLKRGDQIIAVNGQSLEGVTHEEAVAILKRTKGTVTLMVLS

[12] = target: T6, MPDZ_6, O75970
T6 sequence (O75970 1003-1099, limits assumed, looked up): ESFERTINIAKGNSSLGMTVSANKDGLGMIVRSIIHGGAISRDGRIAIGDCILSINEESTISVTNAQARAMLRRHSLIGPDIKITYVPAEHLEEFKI

[13] = target: T7, NHERF1_1, O14745
T7 sequence (O14745 9-104, limits assumed, looked up): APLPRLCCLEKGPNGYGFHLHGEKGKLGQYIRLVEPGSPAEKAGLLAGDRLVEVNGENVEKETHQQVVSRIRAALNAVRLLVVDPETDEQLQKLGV

[14] = target: T8, PARD6B, Q9BYG5
T8 sequence (Q9BYG5 152-260, limits assumed, looked up): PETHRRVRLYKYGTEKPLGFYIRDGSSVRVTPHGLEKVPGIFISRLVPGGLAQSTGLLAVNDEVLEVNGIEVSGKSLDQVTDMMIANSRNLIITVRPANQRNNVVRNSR

[15] = target: T9, PDZD7_1, Q9H5P4
T9 sequence (Q9H5P4 81-178, limits assumed, looked up): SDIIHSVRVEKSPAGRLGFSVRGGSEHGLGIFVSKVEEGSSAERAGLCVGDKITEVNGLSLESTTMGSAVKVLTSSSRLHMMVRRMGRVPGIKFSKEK

[16] = target: PDZD9, Q8IXQ8
Sequence of PDZD9, Q8IXQ8 (Q8IXQ8 23-120): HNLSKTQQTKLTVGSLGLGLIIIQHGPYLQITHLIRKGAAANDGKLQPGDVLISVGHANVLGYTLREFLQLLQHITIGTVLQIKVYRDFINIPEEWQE

[17] = target: T10, PTPN4, P29074
T10 sequence (P29074 512-599, limits assumed, looked up): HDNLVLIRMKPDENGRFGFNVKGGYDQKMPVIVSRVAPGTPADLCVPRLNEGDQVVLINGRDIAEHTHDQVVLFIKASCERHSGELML

[18] = target: T11, RGS12, O14924
T11 sequence (O14924 17-108, limits assumed, looked up): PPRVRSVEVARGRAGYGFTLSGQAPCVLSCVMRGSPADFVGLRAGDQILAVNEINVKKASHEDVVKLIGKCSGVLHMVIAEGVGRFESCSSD

[19] = target: T12, SHANK2, Q9UPX8
T12 sequence (Q9UPX8 621-730, limits assumed, looked up): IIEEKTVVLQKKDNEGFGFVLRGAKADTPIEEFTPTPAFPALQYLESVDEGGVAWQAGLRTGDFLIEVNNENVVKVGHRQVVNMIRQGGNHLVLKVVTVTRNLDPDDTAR

[20] = target: T13, SIPA1L3, O60292
T13 sequence (O60292 961-1052, limits assumed, looked up): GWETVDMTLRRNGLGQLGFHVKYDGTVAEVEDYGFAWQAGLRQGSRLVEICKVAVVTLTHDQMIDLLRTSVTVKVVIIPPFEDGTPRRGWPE

[21] = target: T14, USH1C_3, Q9Y6N9
T14 sequence (Q9Y6N9 447-547, limits assumed, looked up): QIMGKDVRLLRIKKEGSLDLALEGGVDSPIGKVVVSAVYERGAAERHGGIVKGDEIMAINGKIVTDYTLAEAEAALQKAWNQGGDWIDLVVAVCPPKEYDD

[22] = target: T15, TJP3_2, O95049
T15 sequence (O95049 190-282, limits assumed, looked up): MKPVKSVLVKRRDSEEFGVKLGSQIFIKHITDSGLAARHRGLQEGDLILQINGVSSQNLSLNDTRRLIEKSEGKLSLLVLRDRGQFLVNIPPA

Binder	pKd [1]	pKd [2]	pKd [3]	pKd [5]	pKd [6]	pKd [7]	pKd [8]	pKd [9]	pKd [10]	pKd [11]	pKd [12]	pKd [13]	pKd [14]	pKd [15]	pKd [16]	pKd [17]	pKd [18]	pKd [19]	pKd [20]	pKd [21]	other results
SKPTRRETEV [HPV35-E6, P27228]	below the threshold	4.72	below the threshold	below the threshold	3.57	below the threshold	below the threshold	3.56	3.79	3.77	below the threshold	below the threshold	below the threshold	below the threshold	below the threshold	4.03	below the threshold	below the threshold	below the threshold	below the threshold	pKd [4]: below the threshold
RHTTSTETAV [HPV30-E6, P36809]	below the threshold	below the threshold	below the threshold	4.59	below the threshold	below the threshold	below the threshold	5.35	below the threshold	below the threshold	below the threshold	below the threshold	below the threshold	below the threshold	below the threshold	4.72	below the threshold	below the threshold	below the threshold	below the threshold	pKd [4]: 4.14; pKd [22]: below the threshold
RLQRRRETQV [HPV18-E6, P06463]	below the threshold	below the threshold	below the threshold	below the threshold	below the threshold	4.28	below the threshold	below the threshold	below the threshold	below the threshold	below the threshold	below the threshold	below the threshold	below the threshold	below the threshold	4.62	4.35	below the threshold	below the threshold	below the threshold	pKd [22]: below the threshold
SGSRPSATVV [HPV73-E6, Q82005]	below the threshold		4.36	below the threshold	below the threshold	below the threshold	below the threshold	below the threshold	below the threshold	below the threshold	below the threshold	below the threshold	below the threshold	below the threshold	below the threshold	4.65	below the threshold	below the threshold	4.17	below the threshold	pKd [4]: 3.59; pKd [22]: below the threshold
SSLQSLETSV [ATP2B4, P23634]	below the threshold	4.34	below the threshold	below the threshold	below the threshold	below the threshold	below the threshold	below the threshold	below the threshold	below the threshold	below the threshold	below the threshold	below the threshold	below the threshold	below the threshold	4.88	below the threshold	below the threshold	below the threshold	below the threshold	pKd [4]: below the threshold; pKd [22]: below the threshold
QRQARSETLV [HPV59-E6, Q81964]	below the threshold	below the threshold	below the threshold	below the threshold	below the threshold	4.65	4.62	below the threshold	4.33	below the threshold	below the threshold	below the threshold	below the threshold	below the threshold	below the threshold	below the threshold	below the threshold	4.47	below the threshold	below the threshold	pKd [4]: 3.92; pKd [22]: below the threshold
